B1: Septin-11 (Homo sapiens), Q9NVA2 (parent)
chain: MAVAVGRPSNEELRNLSLSGHVGFDSLPDQLVNKSTSQGFCFNILCVGETGIGKSTLMDTLFNTKFESDPATHNEPGVRLKARSYELQESNVRLKLTIVDTVGFGDQINKDDSYKPIVEYIDAQFEAYLQEELKIKRSLFNYHDTRIHACLYFIAPTGHSLKSLDLVTMKKLDSKVNIIPIIAKADTIAKNELHKFKSKIMSELVSNGVQIYQFPTDEETVAEINATMSVHLPFAVVGSTEEVKIGNKMAKARQYPWGVVQVENENHCDFVKLREMLIRVNMEDLREQTHTRHYELYRRCKLEEMGFKDTDPDSKPFSLQETYEAKRNEFLGELQKKEEEMRQMFVMRVKEKEAELKEAEKELHEKFDLLKRTHQEEKKKVEDKKKELEEEVNNFQKKKAAAQLLQSQAQQSGAQQTKKDKDKKNASFT
partner: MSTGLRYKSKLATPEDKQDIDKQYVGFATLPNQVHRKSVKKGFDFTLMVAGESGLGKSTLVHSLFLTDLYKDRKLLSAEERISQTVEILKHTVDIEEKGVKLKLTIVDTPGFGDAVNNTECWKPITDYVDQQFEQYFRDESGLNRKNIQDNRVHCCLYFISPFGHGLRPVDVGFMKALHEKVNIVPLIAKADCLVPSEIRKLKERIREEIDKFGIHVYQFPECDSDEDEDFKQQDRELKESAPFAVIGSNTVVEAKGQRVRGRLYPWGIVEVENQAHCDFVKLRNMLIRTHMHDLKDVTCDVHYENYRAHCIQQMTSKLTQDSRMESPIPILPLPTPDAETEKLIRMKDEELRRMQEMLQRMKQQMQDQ

From IntAct's records for PubMed 16767699 come the findings set out here.

This assay covers variants of B1. As to conditions: with sept5_human SEPTIN5, Q99719.
As to S55N, the “effect of a mutation on the interaction” value is given as “disrupting interaction”.
